Series [1] concerns the molecule itself. Briefly: cryo-EM structure; Dihedral complex: GyrA-ΔCTD mixed with 44 bp DNA and ciprofloxacin, no GyrB; purified on a glycerol/glutaraldehyde gradient (GraFix); also a low resolution reconstruction without glutaraldehyde or antibiotics.
Series [2] deals with the molecule itself. Briefly: cryo-EM structure; Tetrahedral complex: GyrA-ΔCTD mixed with GyrB, 44 bp DNA, ciprofloxacin and novobiocin; purified on a glycerol/glutaraldehyde gradient (GraFix).

B1: Streptococcus pneumoniae gyrase A subunit with truncated C-terminal domain (GyrA-ΔCTD, residues 1–487) (domain or fragment, UniProt P72524 1-487, looked up)
chain: MQDKNLVNVNLTKEMKASFIDYAMSVIVARALPDVRDGLKPVHRRILYGMNELGVTPDKPHKKSARITGDVMGKYHPHGDSSIYEAMVRMAQWWSYRYMLVDGHGNFGSMDGDSAAAQRYTEARMSKIALEMLRDINKNTVDFVDNYDANEREPLVLPARFPNLLVNGATGIAVGMATNIPPHNLGETIDAVKLVMDNPEVTTKDLMEVLPGPDFPTGALVMGKSGIHKAYETGKGSIVLRSRTEIETTKTGRERIVVTEFPYMVNKTKVHEHIVRLVQEKRIEGITAVRDESNREGVRFVIEVKRDASANVILNNLFKMTQMQTNFGFNMLAIQNGIPKILSLRQILDAYIEHQKEVVVRRTRFDKEKAEARAHILEGLLIALDHIDEVIRIIRASETDAEAQAELMSKFKLSERQSQAILDMRLRRLTGLERDKIQSEYDDLLALIADLADILAKPERVSQIIKDELDEVKRKFSDKRRTELMIG
notes: DNA gyrase subunit A, Streptococcus pneumoniae, gene cloned from the ATCC genome 700669DQ; residues 1-487 (C-terminal domain removed); The vector pMCSG7 adds 24 amino acids at the N-terminus, with a six amino acid His-tag and a TEV cleavage site; It forms open dimers that assemble around a 44 bp DNA into oligomers of four dimers (Dihedral complex) or six dimers (Tetrahedral complex); also called …
As for B1, the “stoichiometry N” value in series [1] turned out to be 8 monomers; in series [2], 12 monomers.

The values are drawn from PMC6286129, “CryoEM structures of open dimers of gyrase A in complex with DNA illuminate mechanism of strand passage” (eLife, 2018).
